Here are results for 3 molecules from publication PMC4945142 (Molecular Biology of the Cell, 2016).

Values joined by “and” are separate entries in the source; they are usually repeats but may differ in a detail not shown here. Identical values can stand only once.

Broadly, the stoichiometry N is a count of units in the complex or per binding partner. In general, Kd refers to a measure of binding affinity in units of concentration.

For series [1], the target named is E. coli-expressed GST-Spc110p^1-220 (budding yeast) (UniProt P32380). Put plainly: SEC-MALS.
Series [2] concerns the target γ-tubulin small complex (γTuSC) with γ-tubulin^S48C/S153C, Spc97-YFP and Spc98-CFP (budding yeast) (UniProt P53378). The series can be described thus: FRET or BRET.
Series [3] concerns the molecule itself. The series can be described thus: SEC-MALS. (In general: SEC sorts molecules by how far they enter the pores of the column.)

Regarding “E. coli-expressed GST-Spc110p^1-220 (from UniProt P32380 1-220) (domain or fragment)”, the stoichiometry N in series [1] was 2 and 4.
In series [2], “Spc110p^1-220 tetramer (Spc110p^1-220 fused with the tetramer-forming mutant coiled-coil domain of GCN4, GCN4-LI) (from UniProt P32380 1-220)” had a Kd of 4 nM; a Kd2 (Spc110p tetramer with a single γTuSC) of 43 nM; a Kd3 (a second γTuSC binding to the complex of Spc110p tetramer and one γTuSC) of 3 nM.

B1: Untagged Spc110p^1-220 (domain or fragment, budding yeast, UniProt P32380 1-220, looked up)
chain: MDEASHLPNGSLKNMEFTPVGFIKSKRNTTQTQVVSPTKVPNANNGDENEGPVKKRQRRSIDDTIDSTRLFSEASQFDDSFPEIKANIPPSPRSGNVDKSRKRNLIDDLKKDVPMSQPLKEQEVREHQMKKERFDRALESKLLGKRHITYANSDISNKELYINEIKSLKHEIKELRKEKNDTLNNYDTLEEETDDLKNRLQALEKELDAKNKIVNSRKVD
On to B1, for which the “stoichiometry N” value in series [3] came to 2.
